B1: HDV Ribozyme (parent)
chain: GGCCGGCAUGGUCCCAGCCUCCUCGCUGGCGCCGGCUGGGCAACAUUCCGAGGGGACCGUCCCCUCGGUAAUGGCGAAUGGGACCCA

Variants of: B1
Experiment: self-cleavage, relative activity (ratio to wild type); higher = more cleavage; co-transcriptional

Variant | self-cleavage
GGCCGGCAUGGUCCCAGCCUCCUCACUGGCGCCGGCUAGGCAACAUUCCGAGGGGACCGUCCCCUCGGUAAUGGCGAAUGGGACCCA [G25A G38A] | 0.0536
GGCCGGCAUGGUCCCAGCCUCCUCACUGGCGCCUGCUGGGCAACAUUCCGAGGGGACCGUCCCCUCGGUAAUGGCGAAUGGGACCCA [G25A G34U] | 0.0702
GGCCGGCAUGGUCCCAGCCUCCUCACUGGCGCCGGCUGCGCAACAUUCCGAGGGGACCGUCCCCUCGGUAAUGGCGAAUGGGACCCA [G25A G39C] | 0.0332
GGCCGGCAUGGUCCCAGCCUCCUCACUGGCGCCGGCUGUGCAACAUUCCGAGGGGACCGUCCCCUCGGUAAUGGCGAAUGGGACCCA [G25A G39U] | 0.0244
GGCCGGCAUGGUCCCAGCCUCCUCACUGGCGCCGGCUGGGCAACAUUCCGAGGGAACCGUCCCCUCGGUAAUGGCGAAUGGGACCCA [G25A G55A] | 0.193
GGCCGGCAUGGUCCCAGCCUCCUCACUGGCGCCGGCUGGGCAACAUUCCGAGGGUACCGUCCCCUCGGUAAUGGCGAAUGGGACCCA [G25A G55U] | 0.128
GGCCGGCAUGGUCCCAGCCUCCUCACUGGCGCCGGCUGGGCAACAUUCCGAGGGGACCGUCCCCUCGGUAAUAGCGAAUGGGACCCA [G25A G73A] | 0.0583
GGCCGGCAUGGUCCCAGCCUCCUCACUGGCGCCGGCUGGGCAACAUUCCGAGGGGACCGUCCCCUCGGUAAUUGCGAAUGGGACCCA [G25A G73U] | 0.0702
GGCCGGCAUGGUCCCAGCCUCCUCACUGGCGCCGGCUGGGCAACAUUCCGAGGGGACCGUCCCCUCGGUAAUGGCAAAUGGGACCCA [G25A G76A] | 0.203
GGCCGGCAUGGUCCCAGCCUCCUCACUGGCGCCGGCUGGGCAACAUUCCGAGGGGACCGUCCCCUCGGUAAUGGCUAAUGGGACCCA [G25A G76U] | 0.3
GGCCGGCAUGGUCCCAGCCUCCUCACUGGCGCCGGCUGGGCAACAUUCCGAGGUGACCGUCCCCUCGGUAAUGGCGAAUGGGACCCA [G25A G54U] | 0.202
GGCCGGCAUGGUCCCAGCCUCCUCACUGGCGCCGGCUGGGCAACAUUCCGAGGAGACCGUCCCCUCGGUAAUGGCGAAUGGGACCCA [G25A G54A] | 0.242
GGCCGGCAUGGUCCCAGCCUCCUCACUGGCGCCGGCUGGGCAACAUUCCGAGGGGACCCUCCCCUCGGUAAUGGCGAAUGGGACCCA [G25A G59C] | 0.332
GGCCGGCAUGGUCCCAGCCUCCUCACUGGCGCCGGCUGGGCAACAUUCCGAGGGGACCGUCCCCUCGGUAAUGGCGAAUGGAACCCA [G25A G82A] | 0.0978
GGCCGGCAUGGUCCCAGCCUCCUCACUGGCGCCGGCUGGGCAACAUUCCGAGGGGACCGUCCCCUCUGUAAUGGCGAAUGGGACCCA [G25A G67U] | 0.401
GGCCGGCAUGGUCCCAGCCUCCUCACUGGCGCCGCCUGGGCAACAUUCCGAGGGGACCGUCCCCUCGGUAAUGGCGAAUGGGACCCA [G25A G35C] | 0.0627

Variant | self-cleavage
GGCCGGCAUGGUCCCAGCCUCCUCACUGGCGCCGUCUGGGCAACAUUCCGAGGGGACCGUCCCCUCGGUAAUGGCGAAUGGGACCCA [G25A G35U] | 0.135
GGCCGGCAUGGUCCCAGCCUCCUCACUGGCGCCGGCUGGGCAACAUUCCGAGGGGACCGUCCCCUCGGUAAUGGCGAAUUGGACCCA [G25A G80U] | 0.0923
GGCCGGCAUGGUCCCAGCCUCCUCACUGGCGCCGGCUGGGCAACAUUCCGAGGGGACCGUCCCCUCGGUAAUGGCGAAUCGGACCCA [G25A G80C] | 0.12
GGCCGGCAUGGUCCCAGCCUCCUCACUGGCGCCGGCUGGGCAACAUUCCGAGGGGACCGUCCCCUCGGUAAUGGCGAAUAGGACCCA [G25A G80A] | 0.126
GGCCGGCAUGGUCCCAGCCUCCUCACUGGCGCCGGCUGGGCAACAUUCCCAGGGGACCGUCCCCUCGGUAAUGGCGAAUGGGACCCA [G25A G50C] | 0.181
GGCCGGCAUGGUCCCAGCCUCCUCACUGGCGCCGGCUGGGCAACAUUCCGAGUGGACCGUCCCCUCGGUAAUGGCGAAUGGGACCCA [G25A G53U] | 0.179
GGCCGGCAUGGUCCCAGCCUCCUCACUGGCGCCGGCUGGACAACAUUCCGAGGGGACCGUCCCCUCGGUAAUGGCGAAUGGGACCCA [G25A G40A] | 0.317
GGCCGGCAUGGUCCCAGCCUCCUCACUGGCGCCGGCUGGCCAACAUUCCGAGGGGACCGUCCCCUCGGUAAUGGCGAAUGGGACCCA [G25A G40C] | 0.0959
GGCCGGCAUGGUCCCAGCCUCCUCACUGGCGCCGGCUGGGCAACAUUCCGAGGGGACCGUCCCCUCGGUAAUGCCGAAUGGGACCCA [G25A G74C] | 0.163
GGCCGGCAUGGUCCCAGCCUCCUCACUGGCGCCGGCUGGGCAACAUUCCGAGGGGACCGUCCCCUCGGUAAUGUCGAAUGGGACCCA [G25A G74U] | 0.0583
GGCCGGCAUGGUCCCAGCCUCCUCACUGGCGCCGGCUGGGCAACAUUCCGAGGGGACCGUCCCCUCGGUAAUGACGAAUGGGACCCA [G25A G74A] | 0.0767
GGCCGGCAUGGUCCCAGCCUCCUCACUGGCGCCGGCUGGGCAACAUUCCGAGGGGACCGUCCCCUCGGUAAUGGCGAAUGCGACCCA [G25A G81C] | 0.258
GGCCGGCAUGGUCCCAGCCUCCUCACUGGCGCCGGCUGGGCAACAUUCCGAGGGGACCGUCCCCUCGGUAAUGGCGAAUGUGACCCA [G25A G81U] | 0.112
GGCCGGCAUGGUCCCAGCCUCCUCACUGGCGCCGGCUGGGCAACAUUCCGAGGGGACCGUCCCCUCGAUAAUGGCGAAUGGGACCCA [G25A G68A] | 0.179
GGCCGGCAUGGUCCCAGCCUCCUCACUGGCGCCGGCUGGGCAACAUUCCGAGGGGACCGUCCCCUCGUUAAUGGCGAAUGGGACCCA [G25A G68U] | 0.247
GGCCGGCAUGGUCCCAGCCUCCUCACUGGCGCCGGCUGGGCAACAUUCCGAUGGGACCGUCCCCUCGGUAAUGGCGAAUGGGACCCA [G25A G52U] | 0.169

Source: the RNAGym collection of RNA variant scans (doi:10.7554/elife.80360)
